The values below come from patent publication US20170189508A1 (IMMATICS BIOTECHNOLOGIES, published 2017).

Test [1] concerns the target HLA-A*02 (human).
Test [2] deals with HLA-A*02 (human). Described as the table's title states.

Where two headings read alike, the source gives them in different places.

B1: KLQNIMMLL (SEQ ID NO: 230) (peptide)
peptide: KLQNIMMLL
In the case of B1, the binding result with HLA-A*02 [1] is listed as “binds”.

B2: RLMEENWNA (SEQ ID NO: 27) (peptide)
peptide: RLMEENWNA
For the molecule B2, the binding result with HLA-A*02 [2] was “binds”.

B3: AILAHLNTV (SEQ ID NO: 229) (peptide)
peptide: AILAHLNTV
For the molecule B3, the binding result in the test with HLA-A*02 [1] is given as “binds”.

B4: KIIDFLSAL (SEQ ID NO: 235) (peptide)
peptide: KIIDFLSAL
On to B4, for which, in the test with HLA-A*02 [1], the binding result is listed as “binds”.
